Like-named read-outs stand apart in the source and are kept apart here.
How the values were obtained:
[1] = system: Trichoderma reesei cellulase composition; format: biochemical
Procedure: (§1) Control saccharification reactions containing equivalent methanol-containing buffer concentrations, 2% and 10% (v/v) methanol, or no methanol, were performed on each 96-well plate. […] All experiments were performed in triplicate, unless otherwise indicated.
(§2) The filtrates were analyzed for sugar content as described below. […] Data were processed using MICROSOFT EXCEL® software (Microsoft, Richland, Wash., USA), or […]® software (Synergy Software, Reading, Pa., USA).
Similarly, the effect of each bicyclic compound tested in the absence of GH61 polypeptide was quantified by calculating the ratio of percent conversion for the T. reesei cellulase composition without supplemented GH61 polypeptide having cellulolytic enhancing activity in the presence of each compound to the percent conversion in the absence of each compound:
In general, the bicyclic compound effect(no GH61) was approximately 1, though the methanol solvent was inhibitory to cellulolysis (Example 3).

[2] = system: Trichoderma reesei cellulase composition; format: biochemical; conditions: for GH61 effect: 2% methanol
Procedure: as §1, §2
[formula] where 1.111 represents the mass conversion factor accounting for the hydration of glucose produced from the cellulose polymer. The fractional hydrolysis is defined herein as the conversion expressed as a fraction rather than as a percent (i.e., % conversion/100).
[formula] […] Thus for saccharification reactions where only the presence of a bicyclic compound differs, a difference in GH61 effect can be attributed to the effect of the bicyclic compound on the cellulolytic enhancing effect of the GH61 polypeptide.

Molecule: CO [methanol]
- effect on saccharification by the T. reesei cellulase composition ([1]; 2% and 10% (v/v) methanol): inhibited saccharification
- bicyclic compound effect(no GH61) ([1]; 2% methanol, 3 days): 0.93
- bicyclic compound effect(no GH61) ([1]; 2% methanol, 7 days): 0.90
- bicyclic compound effect(no GH61) ([1]; 10% methanol, 3 days): 0.43
- bicyclic compound effect(no GH61) ([1]; 10% methanol, 7 days): 0.35

B1: T. aurantiacus GH61A polypeptide: GH61A polypeptide having cellulolytic enhancing activity (SEQ ID NO: 14), recombinantly prepared in Aspergillus oryzae JaL250 (protein, listed as Thermoascus aurantiacus)
chain: MSFSKIIATAGVLASASLVAGHGFVQNIVIDGKYYGGYLVNQYPYMSNPPEVIAWSTTATDLGFVDGTGYQTPDIICHRGAKPGALTAPVSPGGTVELQWTPWPDSHHGPVINYLAPCNGDCSTVDKTQLEFFKIAESGLINDDNPPGIWASDNLIAANNSWTVTIPTTIAPGNYVLRHEIIALHSAQNQDGAQNYPQCINLQVTGGGSDNPAGTLGTALYHDTDPGILINIYQKLSSYIIPGPPLYTG
- GH61 effect ([2]; 3 days of hydrolysis): 0.98±0.078
- GH61 effect ([2]; 7 days of hydrolysis): 1.01±0.06
- GH61 effect (Equation 4) ([2]; 10% methanol, 3 days): 1.00±0.068
- percent conversion in the presence of 50% (w/w) T. aurantiacus GH61A polypeptide ([2]; 10% methanol, 3 days of hydrolysis): 11.8±0.379%
- percent conversion in the presence of 50% (w/w) T. aurantiacus GH61A polypeptide ([2]; 10% methanol, 7 days of hydrolysis): 15.1±0.388%
- percent conversion in the presence of 50% (w/w) T. aurantiacus GH61A polypeptide ([2]; 3 days of hydrolysis, no bicyclic compound, no methanol, averaged over all plates): 26.2±1.17%
- GH61 effect (Equation 4) ([2]; 3 days of saccharification, no bicyclic compound, no methanol): 0.98±0.064
- percent conversion in the presence of 50% (w/w) T. aurantiacus GH61A polypeptide ([2]; 7 days of hydrolysis, no bicyclic compound, no methanol, averaged over all plates): 41.4±1.67%
- GH61 effect (Equation 4) ([2]; 7 days of saccharification, no bicyclic compound, no methanol): 0.99±0.051
- GH61 effect on AVICEL ([2]; in the absence of bicyclic compounds): 1

— patent publication US9458483B2, “Compositions comprising a polypeptide having cellulolytic enhancing activity and a bicyclic compound and uses thereof” (Novozymes, Inc., priority 2010, dated 2016)
